These results are taken from PMC10099132, “Sequence and Structural Motifs Controlling the Broad Substrate Specificity of the Mycobacterial Hormone-Sensitive Lipase LipN” (ACS Omega, 2023).

In data set [1] the target is T1, MmLipN (LipN from M. marinum) (Mycobacterium marinum, UniProt B2HIK1).
T1 construct: E. coli LOBSTR (DE3); Ni-NTA
T1 sequence (B2HIK1 1-372): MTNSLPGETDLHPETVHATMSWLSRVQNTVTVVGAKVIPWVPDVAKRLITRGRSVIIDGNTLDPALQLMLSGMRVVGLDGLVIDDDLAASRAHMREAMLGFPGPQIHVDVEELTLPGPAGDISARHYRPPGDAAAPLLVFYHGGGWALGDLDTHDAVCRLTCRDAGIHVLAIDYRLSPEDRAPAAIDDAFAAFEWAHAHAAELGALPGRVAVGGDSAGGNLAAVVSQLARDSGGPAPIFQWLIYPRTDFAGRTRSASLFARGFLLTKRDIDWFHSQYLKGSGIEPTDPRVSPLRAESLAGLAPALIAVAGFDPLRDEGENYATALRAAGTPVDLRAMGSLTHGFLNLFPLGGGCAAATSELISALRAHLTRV
Nature of the data set: p-nitrophenol release at […] nm, Michaelis-Menten fit. It counts as biochemical. The conditions noted are these: PBS, acetylated BSA 0.1 mg/mL, acetonitrile, 36 nM enzyme, 25 °C.

Data set [2] relates to O=C(OCOc1ccc2c(c1)Oc1cc(OCOC(=O)c3ccco3)ccc1C21OC(=O)c2ccccc21)c1ccco1. The data set can be described thus: purified protein, by the assay type. Also noted: fluorogenic ester hydrolysis, fluorescein release, Michaelis-Menten fit of initial rates. As to the method: (§1) The enzyme kinetic activity of LipN was assayed via the hydrolysis of the fluorogenic substrates (Figure 1) in accordance with past kinetic analysis of mycobacterial serine hydrolases.[37],[38],[40],[66],[67] Kinetic assays were run in triplicate on black 96-well plates in a Synergy H1 Hybrid Reader (BioTek). Fluorogenic ester substrates (10 mM in DMSO) were diluted to a starting concentration of 100 μM in PBS containing acetylated BSA (Sigma; 0.1 mg/mL). Eight serial dilutions (1:1; 120 μL into 240 μL total volume) of each substrate were made using PBS–BSA. Fluorogenic substrate dilutions (95 μL) were then transferred to opaque 96-well microplate (Corning, Lowell, MA). Reactions were initiated by quickly adding enzyme (5 μL, 3.0 nM final concentration) to each assay well, mixed, and the fluorescence counts measured every 26–30 s for 4.5 min with a BioTek H1 Synergy multimode plate reader (Biotek Instruments; Winooski, VT) at ambient temperature. The instrument measured relative fluorescence through excitation at λ = 485 nm and emission at λ = 520 nm. The fluorescence change was converted to molar concentrations using a fluorescein standard curve (300–2.3 nM), whose fluorescence was measured simultaneously. The initial rates of the enzyme-catalyzed reactions were measured in triplicate and plotted versus fluorogenic substrate concentration. […] (A) Activation of fluorogenic ester substrates by MmLipN. Each of the substrates is composed of diacyloxymethyl ether fluorescein with varying R-groups. The differing R-groups have been organized into classes and colored based on chemical functionality. All of the substrates were synthesized as described previously.[38],[43] Substrates 6, 10–11, 14–15, 20, 23–30, and 33 were newly synthesized for this characterization of MmLipN. Detailed synthetic characterization is provided in the Supporting Information. (B) Global comparison of the catalytic specificity (kcat/KM) of MmLipN against each of the 33 substrates with ester classes labeled. Catalytic efficiency values (kcat/Km) are given ± SD based on at least three independent kinetic replicates. (C, D) Kinetic activity of MmLipN against high-activity ester substrates 1 (black circles), 7 (blue squares), and 20 (red diamonds) and low-activity ester substrates 12 (green circles), 16 (red squares), 27 (purple diamonds), and 31 (orange squares). Low- and high-activity substrates display classic Michaelis–Menten kinetics with MmLipN and activity above background hydrolysis rates. Traces colored based on ester classification from (A, B). All measurements were completed in at least triplicate and shown ± SD.

Data set [3] has as its system O=C1OC2(c3ccc(OCOC(=O)C4CCCC4)cc3Oc3cc(OCOC(=O)C4CCCC4)ccc32)c2ccccc21. The data set can be described thus: purified protein, by the assay type. Also noted: fluorogenic ester hydrolysis, fluorescein release, Michaelis-Menten fit of initial rates. Here is the method: as §1
For data set [4], the system named is O=C1OC2(c3ccc(OCOC(=O)C4(O)CC4)cc3Oc3cc(OCOC(=O)C4(O)CC4)ccc32)c2ccccc21. Nature of the data set: purified protein, by the assay type. Also noted: fluorogenic ester hydrolysis, fluorescein release, Michaelis-Menten fit of initial rates. As to the method: as §1
Data set [5] concerns CC(=O)OCOc1ccc2c(c1)Oc1cc(OCOC(C)=O)ccc1C21OC(=O)c2ccccc21. Nature of the data set: purified protein, by the assay type. Further details: fluorogenic ester hydrolysis, fluorescein release, Michaelis-Menten fit of initial rates. As to the method: as §1
The test system of data set [6] is CS(=O)(=O)C1(C(=O)OCOc2ccc3c(c2)Oc2cc(OCOC(=O)C4(S(C)(=O)=O)CC4)ccc2C32OC(=O)c3ccccc32)CC1. The data set can be described thus: purified protein, by the assay type. Further details: fluorogenic ester hydrolysis, fluorescein release, Michaelis-Menten fit of initial rates. Here is the method:
as §1

Data set [7] concerns O=C1OC2(c3ccc(OCOC(=O)C4(C(F)(F)F)CC4)cc3Oc3cc(OCOC(=O)C4(C(F)(F)F)CC4)ccc32)c2ccccc21. The data set can be described thus: purified protein, by the assay type. Further details: fluorogenic ester hydrolysis, fluorescein release, Michaelis-Menten fit of initial rates. As to the method: as §1
For data set [8], the system named is CCCC(=O)Oc1ccc([N+](=O)[O-])cc1. Nature of the data set: purified protein, by the assay type. Further details: p-nitrophenyl ester hydrolysis, absorbance at 412 nm, Michaelis-Menten fit. From the text:
(A) Classic p-nitrophenyl ester substrates were used as conformation for fluorogenic substrate measurements (Figure 1). (B) Catalytic efficiency comparison of MmLipN against p-nitrophenyl substrates. Catalytic efficiency values (kcat/Km) are given ± SD. (C, D) Kinetic activity of MmLipN against (C) short alkyl ester substrates: p-nitrophenyl acetate (C2) and p-nitrophenyl butyrate (C4) and (D) longer alkyl ester substrates: p-nitrophenyl valerate ([…]), p-nitrophenyl octonoate (C8), and p-nitrophenyl myristate (C14). Data points were fitted to the Michaelis–Menten equation and are shown ± SD.

Take `CCCCC(=O)Oc1ccc([N+](=O)[O-])cc1` [p-nitrophenyl valerate]: in data set [1], the KM entry was “MmLipN was measured against p-nitrophenyl acetate, p-nitrophenyl butyrate, p-nitrophenyl valerate”.
For `CCCC(=O)Oc1ccc([N+](=O)[O-])cc1` [p-nitrophenyl butyrate], the KM entry in data set [1] is on record as “LipN showed highest activity against p-nitrophenyl butyrate”.
Turning to “MmLipN (LipN from M. marinum) (Mycobacterium marinum M)”, the Km came out at 0.84 ± 0.60 µM in data set [2]; 33.9 ± 7.71 µM in data set [3]; 0.40 ± 0.10 µM in data set [4]; 0.22 ± 0.12 µM in data set [5]; 0.084 ± 0.15 µM in data set [6]; 0.37 ± 0.13 µM in data set [7]. Moreover, the Km in data set [8] turned out to be 20 ± 9 µM. The kcat in data set [2] stood at 0.003 ± 0.0048 s⁻¹; in data set [3] it was 0.0012 ± 0.0001 s⁻¹; in data set [4] it was 0.0029 ± 0.0016 s⁻¹; in data set [5], 0.1 ± 0.038 s⁻¹; in data set [6] it was 1.4e-05 ± 5e-05 s⁻¹; in data set [7], 3.7e-05 ± 3e-05 s⁻¹. In data set [8], the kcat amounted to 190 ± 10 s⁻¹. Also, the catalytic efficiency (kcat/Km) came out at 3500 ± 3100 M⁻¹ s⁻¹ in data set [2]; 29 ± 4 M⁻¹ s⁻¹ in data set [3]; 7400 ± 2200 M⁻¹ s⁻¹ in data set [4]; 460000 ± 150000 M⁻¹ s⁻¹ in data set [5]; 170 ± 330 M⁻¹ s⁻¹ in data set [6]; 98 ± 43 M⁻¹ s⁻¹ in data set [7]. Moreover, the specificity constant (kcat/Km) in data set [8] stood at 9.3e+06 ± 2.1e+06 M⁻¹ s⁻¹.
For the molecule `CC(=O)Oc1ccc([N+](=O)[O-])cc1` [p-nitrophenyl acetate], the KM entry in data set [1] was “The enzymatic activity of MmLipN was measured against p-nitrophenyl acetate”.
